Source: article PMC4132019

Target: CRM1-HA (chromosome region maintenance 1) (human (HeLa cell cDNA)) (UniProt O14980)
Assay: pull-down

Chain of UniProt O14980 (O14980 whole entry): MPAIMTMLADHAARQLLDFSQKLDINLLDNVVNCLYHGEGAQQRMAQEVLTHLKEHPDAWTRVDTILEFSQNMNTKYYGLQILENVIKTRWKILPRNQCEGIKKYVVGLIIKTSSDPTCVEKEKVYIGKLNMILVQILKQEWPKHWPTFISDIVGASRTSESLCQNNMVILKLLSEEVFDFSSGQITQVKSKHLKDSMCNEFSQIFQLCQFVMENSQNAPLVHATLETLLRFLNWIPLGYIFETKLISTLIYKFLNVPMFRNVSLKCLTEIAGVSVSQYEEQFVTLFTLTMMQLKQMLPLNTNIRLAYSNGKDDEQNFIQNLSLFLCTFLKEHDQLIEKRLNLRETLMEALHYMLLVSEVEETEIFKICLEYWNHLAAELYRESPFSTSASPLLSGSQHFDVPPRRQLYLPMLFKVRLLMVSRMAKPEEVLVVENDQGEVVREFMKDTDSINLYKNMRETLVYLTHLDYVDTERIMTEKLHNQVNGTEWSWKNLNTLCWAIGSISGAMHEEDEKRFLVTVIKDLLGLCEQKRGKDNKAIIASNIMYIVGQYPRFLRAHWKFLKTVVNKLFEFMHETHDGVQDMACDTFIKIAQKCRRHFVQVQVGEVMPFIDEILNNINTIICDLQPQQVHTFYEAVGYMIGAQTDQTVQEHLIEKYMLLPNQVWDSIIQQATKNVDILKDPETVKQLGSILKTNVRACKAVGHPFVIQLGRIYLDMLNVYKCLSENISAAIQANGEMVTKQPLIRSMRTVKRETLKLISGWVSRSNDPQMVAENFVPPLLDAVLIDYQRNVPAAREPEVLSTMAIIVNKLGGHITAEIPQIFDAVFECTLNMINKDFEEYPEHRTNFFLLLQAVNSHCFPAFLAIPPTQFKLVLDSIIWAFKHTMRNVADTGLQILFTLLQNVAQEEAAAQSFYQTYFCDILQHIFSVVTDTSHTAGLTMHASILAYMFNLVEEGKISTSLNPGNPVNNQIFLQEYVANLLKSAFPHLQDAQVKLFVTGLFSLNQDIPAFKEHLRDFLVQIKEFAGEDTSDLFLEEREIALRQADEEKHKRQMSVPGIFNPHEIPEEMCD

NP-FLAG (wild-type nucleoprotein of influenza A/WSN/33) (from UniProt P15682 1-498) (natural protein)
CRM1 binding (%WT): 100 % of WT
